Patent US5814466, “Method for assaying for a substance that affects an SH2-phosphoraylated ligand regulatory system” (Mount Sinai Hospital Corporation, dated 1998)

B1: TrpE-PLC-SH2[N] (other)
chain: MQTQKPTLELLTCEGAYRDNPTALFHQLCGDRPATLLLESADIDSKDDLKSLLLVDSALRITALGDTVTIQALSGNGEALLALLDNALPAGVESEQSPNCRVLRFPPVSPLLDEDARLCSLSVFDAFRLLQNLLNVPKEEREAMFFGGLFSYDLVAGFEDLPQLSAENNCPDFCFYLAETLMVIDHQKKSTRIQASLFAPNEEEKQRLTARLNELRQQLTEAAPPLPVVSVPHMRCECNQSDEEFGGVVRLLQKAIRAGEIFQVVPSRRFSLPCPSPLAAYYVLKKSNPSPYMFFMQDNDFTLFGASPESSLKYDATSRQIEIWFHGKLGAGRDGRHIAERLLTEYCIETGAPDGSFLVRESETFVGDYTLSFWRNGKVQHCRIHSRQDAGTPKFFLTDNLVFDSLYDLITHYQQVPLRCNEFEMRLSEPV
B2: TrpE-GAP-SH2[N+3+C] (other)
chain: MQTQKPTLELLTCEGAYRDNPTALFHQLCGDRPATLLLESADIDSKDDLKSLLLVDSALRITALGDTVTIQALSGNGEALLALLDNALPAGVESEQSPNCRVLRFPPVSPLLDEDARLCSLSVFDAFRLLQNLLNVPKEEREAMFFGGLFSYDLVAGFEDLPQLSAENNCPDFCFYLAETLMVIDHQKKSTRIQASLFAPNEEEKQRLTARLNELRQQLTEAAPPLPVVSVPHMRCECNQSDEEFGGVVRLLQKAIRAGEIFQVVPSRRFSLPCPSPLAAYYVLKKSNPSPYMFFMQDNDFTLFGASPESSLKYDATSRQIEITNQWYHGKLDRTIAEERLRQAGKSGSYLIRESDRRPGSFVLSFLSQMNVVNHFRIIAMCGDYYIGGRRFSSLSDLIGYYSHVSCLLKGEKLLYPVAPPEPVEDRRRVRAILPYTKVPDTDEISFLKGDMFIVHNELEDGWMWVTNLRTDEQGLIVEDLVEEVGREEDPHEGKIWFHGKISKQEAYNLLMTVGQVCSFLVRPSDNTPGDYSLYFRTNENIQRFKICPTPNNQFMMGGRYYNSIGDIIDHYRKEQIVEGYYLKEPVPMQD
B3: TrpE-PLC-SH2[N+C] (other)
chain: MQTQKPTLELLTCEGAYRDNPTALFHQLCGDRPATLLLESADIDSKDDLKSLLLVDSALRITALGDTVTIQALSGNGEALLALLDNALPAGVESEQSPNCRVLRFPPVSPLLDEDARLCSLSVFDAFRLLQNLLNVPKEEREAMFFGGLFSYDLVAGFEDLPQLSAENNCPDFCFYLAETLMVIDHQKKSTRIQASLFAPNEEEKQRLTARLNELRQQLTEAAPPLPVVSVPHMRCECNQSDEEFGGVVRLLQKAIRAGEIFQVVPSRRFSLPCPSPLAAYYVLKKSNPSPYMFFMQDNDFTLFGASPESSLKYDATSRQIEIWFHGKLGAGRDGRHIAERLLTEYCIETGAPDGSFLVRESETFVGDYTLSFWRNGKVQHCRIHSRQDAGTPKFFLTDNLVFDSLYDLITHYQQVPLRCNEFEMRLSEPVPQTNAHESKEWYHASLTRAQAEHMLMRVPRDGAFLVRKRNEPNSYAISFRAEGKIKHCRVQQEGQTVMLGNSEFDSLVDLISYYEKHPLYRKMKLRYPI

Tests used:
[1] = target: T1, PDGF receptor from BB-PDGF-stimulated Rat-2 cells (activated PDGF-R) (rat (endogenous protein of Rat-2 cells), UniProt Q05030, phosphotyrosine (after stimulation with 75 nM BB-PDGF; sites not stated)); assay: pull-down from lysate of PDGF-stimulated Rat-2 PLCγ1 cells; competitor: overexpressed cellular PLCγ1
Excerpt: Only a minor fraction of activated PDGF-R complexes with PLCγ1 in vivo. A Rat-2 cell line was genetically modified to overexpress PLCγ1 by tenfold as compared with the endogenous enzyme (Rat-2 PLCγ1). There is a proportionate increase in the amount of PDGF-R precipitated with antibodies to PLCγ1 (anti-PLCγ1) after PDGF stimulation of Rat-2 PLCγ1 cells, in comparison with parental Rat-2 cells. If bacterial PLCγ1 SH2 domains bound to the same site(s) on the PDGF-R as did cellular PLCγ1, then overexpression of PLCγ1 should block binding of bacterial PLCγ1 SH2 domains to activated PDGF-R in vitro. To investigate this Rat-2 cells (FIG. 10, lanes 1, 2, 5 and 6) or a Rat-2 cell line that overexpressed PLCγ1 by tenfold (R2-PLCγ; lanes 3, 4, 7, 8) were stimulated with PDGF (lanes 1, 3, and 5–8) or maintained without PDGF (lanes 2 and 4). Cell lysates were mixed with immobilized TrpE-PLC-SH2[N] (lanes 1 to 4), TrpE-PLC-SH2[N+C] (lanes 5 and 7), or TrpE-GAP-SH2 [N+3+C] ([…]). Samples were washed, separated by gel electrophoresis, and immunoblotted with anti-P.Tyr. Similar results were obtained by blotting with anti-PDGF-R.

[2] = target: T1, PDGF receptor from BB-PDGF-stimulated …; assay: pull-down of immobilised TrpE fusion from lysate of PDGF-stimulated Rat-2 cells, immunoblot
Description: The following procedure was used to investigate binding of TryE fusion proteins that contain GAP, Src, or Crk SH2 domains to PDGF-R in lysates of stimulated Rat-2 cells. Serum-starved Rat-2 cells were stimulated for 5 min at 37° C. with 75 nM BB-PDGF, lysed, and mixed with the indicated immobilized TrpE bacterial fusion proteins. Complexes were washed, resolved on 7.5% SDS-polyacrylamide gels and analyzed by immunoblotting with anti-P.Tyr (8 hour exposure) or with anti-PDGF-R (18 hour exposure).
Because GAP also associates with the PDGF-R, experiments were carried out using bacterial GAP SH2 sequences (see FIG. 7). The GAP SH2[N] domain bound the PDGF-R in a lysate of PDGF-stimulated cells (FIG. 9), but not in unstimulated cells.

Binder	PDGF-R associated, relative to parental PDGF-stimulated Rat-2 cells [1]	fold more efficient binding than expected from the individual SH2 domains [2] [fold]
B1	0.33 fraction of the amount from parental Rat-2 cells	–
B2	–	3
B3	0.33 fraction of the amount from parental Rat-2 cells	–
